Measured values from patent publication US12485182B2, “Proteoglycan mimetics for enhanced wound healing, angiogenesis, and vascular repair” (The Regents of the University of California, priority 2018, dated 2025).
Values belong to the substance of their own block, whether it stands above or below them. Non-standard residues stand in square brackets, D forms with d. No end group written: not given here. AEEA = NCCOCCOCC(=O)O

What was measured:
collagen I = target: T1, collagen I (Rattus norvegicus, UniProt P02454+P02466); assay: Surface binding of biotinylated molecules to collagen I (streptavidin-HRP); conditions: for collagen I binding after incubation (deterioration of binding activity over time): after 2 weeks in 1% BSA at room temperature
T1 construct: rat tail collagen I (Corning); purchased Corning; host or cells: rat tail (tissue-extracted)
T1 sequence (P02454 152-1207 limits assumed): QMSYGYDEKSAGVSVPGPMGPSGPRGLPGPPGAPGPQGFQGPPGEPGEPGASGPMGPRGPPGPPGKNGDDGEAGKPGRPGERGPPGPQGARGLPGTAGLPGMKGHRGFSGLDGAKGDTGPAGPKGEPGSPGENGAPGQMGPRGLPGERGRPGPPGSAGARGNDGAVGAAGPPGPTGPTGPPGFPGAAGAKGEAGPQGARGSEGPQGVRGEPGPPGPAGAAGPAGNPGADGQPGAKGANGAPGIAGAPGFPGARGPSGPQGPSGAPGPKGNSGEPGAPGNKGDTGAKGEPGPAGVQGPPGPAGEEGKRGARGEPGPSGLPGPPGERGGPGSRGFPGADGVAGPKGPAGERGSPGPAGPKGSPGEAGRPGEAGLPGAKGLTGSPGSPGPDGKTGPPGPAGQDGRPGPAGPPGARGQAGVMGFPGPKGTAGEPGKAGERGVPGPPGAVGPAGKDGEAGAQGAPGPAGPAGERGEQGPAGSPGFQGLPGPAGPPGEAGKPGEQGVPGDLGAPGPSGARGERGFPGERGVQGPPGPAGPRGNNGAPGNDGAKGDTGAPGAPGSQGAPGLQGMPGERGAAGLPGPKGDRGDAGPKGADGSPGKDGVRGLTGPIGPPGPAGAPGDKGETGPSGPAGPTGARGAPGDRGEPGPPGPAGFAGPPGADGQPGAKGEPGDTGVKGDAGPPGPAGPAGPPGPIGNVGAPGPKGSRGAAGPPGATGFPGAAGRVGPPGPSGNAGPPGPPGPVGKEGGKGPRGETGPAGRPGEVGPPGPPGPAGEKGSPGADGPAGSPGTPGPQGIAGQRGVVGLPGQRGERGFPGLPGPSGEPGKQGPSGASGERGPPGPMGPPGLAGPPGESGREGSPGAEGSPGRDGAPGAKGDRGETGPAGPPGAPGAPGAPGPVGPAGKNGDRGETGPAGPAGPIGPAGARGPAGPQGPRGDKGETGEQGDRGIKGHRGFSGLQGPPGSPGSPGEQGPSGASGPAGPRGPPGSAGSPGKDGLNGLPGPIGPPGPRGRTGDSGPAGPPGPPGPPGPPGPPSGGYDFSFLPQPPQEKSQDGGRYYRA
T1 sequence (P02466 86-1125 limits assumed): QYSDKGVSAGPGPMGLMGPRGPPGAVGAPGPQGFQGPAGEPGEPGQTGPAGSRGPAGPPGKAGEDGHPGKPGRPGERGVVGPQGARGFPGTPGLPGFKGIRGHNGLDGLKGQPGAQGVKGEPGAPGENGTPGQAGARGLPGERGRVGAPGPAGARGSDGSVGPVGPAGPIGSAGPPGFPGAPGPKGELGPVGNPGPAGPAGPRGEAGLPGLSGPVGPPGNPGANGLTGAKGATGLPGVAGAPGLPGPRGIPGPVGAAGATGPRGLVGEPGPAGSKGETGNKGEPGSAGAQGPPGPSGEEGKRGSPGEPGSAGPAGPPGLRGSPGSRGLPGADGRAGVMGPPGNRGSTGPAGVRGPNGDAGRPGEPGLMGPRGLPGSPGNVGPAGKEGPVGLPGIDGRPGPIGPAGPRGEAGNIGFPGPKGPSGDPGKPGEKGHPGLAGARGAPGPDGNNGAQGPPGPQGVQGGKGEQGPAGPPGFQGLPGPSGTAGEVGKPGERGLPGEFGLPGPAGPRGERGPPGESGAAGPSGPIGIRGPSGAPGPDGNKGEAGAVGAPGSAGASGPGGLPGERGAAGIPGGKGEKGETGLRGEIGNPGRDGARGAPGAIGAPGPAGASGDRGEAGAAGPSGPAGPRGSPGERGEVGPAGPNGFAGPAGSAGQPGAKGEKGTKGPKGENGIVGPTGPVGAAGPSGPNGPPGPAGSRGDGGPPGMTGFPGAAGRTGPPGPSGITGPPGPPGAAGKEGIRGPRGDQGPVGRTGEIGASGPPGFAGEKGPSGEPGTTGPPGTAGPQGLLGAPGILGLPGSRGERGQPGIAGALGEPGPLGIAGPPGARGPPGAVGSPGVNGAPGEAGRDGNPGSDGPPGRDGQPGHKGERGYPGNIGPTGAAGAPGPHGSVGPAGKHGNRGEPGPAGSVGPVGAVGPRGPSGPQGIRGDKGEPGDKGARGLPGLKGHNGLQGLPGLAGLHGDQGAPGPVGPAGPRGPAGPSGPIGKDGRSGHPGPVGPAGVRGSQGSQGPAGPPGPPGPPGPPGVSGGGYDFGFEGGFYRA
Method: (§1) High-binding 96-well plates (Corning) were coated with 50 μg/mL rat tail collagen I (Corning) at 4° C. overnight or 2% reduced growth factor Matrigel (Corning #354230) in basal EBM media for 30 minutes at 37° C. and rinsed 3× with PBS before blocking non-specific binding with 1% Bovine Serum Albumin (BSA) for 1 hour at room temperature. For fibrinogen surfaces, a fibrinogen coating solution of ˜2.75 mg/mL fibrinogen (Sigma) and 5.5 μg/mL aprotinin (Sigma) was incubated at 4° C. overnight in high-binding plates. Biotinylated samples dissolved in 1% BSA were allowed to bind to the surface for 30 minutes at 37° C. on a plate shaker. After 3 washes with PBS, wells were incubated with 1:200 streptavidin-HRP in 1% BSA, rinsed 3× with PBS, developed with a 1:1 A to B color solution for 20 minutes, stopped with the addition 2N H2SO4, and read on a Spectramax M5 platereader for absorbance at 450 nm with 540 nm correction.
(§2) The ability of DS-SILY4 to bind to various protein surface coatings was investigated using streptavidin-HRP detection of bound biotinylated DS-SILY4 molecules. Here we studied collagen and fibrinogen binding properties of the proteoglycan mimics since this proposed therapy is designed to target angiogenic activity to the wound site by tethering to extracellular matrix. Using standard surface coating procedures for collagen (50 μg/mL) and matrigel (2%), ˜7.5 μg/cm^2 rat tail collagen I and ˜28 μg/cm^2 matrigel were allowed to bind to a high bind plate.

[1] = system: matrigel (collagen IV/laminin); assay: Surface binding of biotinylated molecules to matrigel (streptavidin-HRP); conditions: for matrigel binding affinity (relative): comparison between molecules; for matrigel binding after incubation (deterioration of binding activity over time): after 2 weeks in 1% BSA at room temperature
Method: as §1, §2

THP-1 monocytes = assay: Attachment of THP-1 monocytes to peptide-treated surfaces; assay type: cell-based; conditions: biotin-peptide on Avidin-coated wells
Source text: (§3) FIG. 33. Attachment of cells and platelets to LXW7 and GRGD (SEQ ID NO: 2) treated surfaces. (A) Images of attached HCAECs (left panels), THP-1 monocytes (middle panels) and platelets (right panels) on surfaces treated by D-Biotin (a-c) (control), LXW7 (d-f) or GRGD (SEQ ID NO: 2) (g-i). Scale bars in a, b, d, e, g and h are 50 μm. Scale bars in c, f and i are 20 μm. (B) The number of cells or platelets attached on different treated surfaces were quantified and statistical analyses were performed. Data were expressed as mean±standard deviation: **p<0.01 (n=4).
(§4) Using primary artery-derived ECs and blood-derived EPCs as living probes to screen One-Bead-One-Compound (OBOC) combinatorial peptide libraries, several high-affinity binding ligands against the αvβ3 integrin on the surface of EPCs/ECs were identified. […] The LXW7 peptide, when grafted to surfaces, supports adhesion and spreading of EPCs and human coronary ECs, but not platelets or monocytes. […] After washing with PBS and blocking with 1% BSA wells were ready for cell attachment with 5×10^4 HCAECs or THP-1 monocytes suspended in the respective maintenance medium, or freshly isolated platelets at a density of 5×10^7 platelets/cm^2 incubated for 16 h at 37° C., 5% CO2. […] Quantification of images was performed using the Image J software (NIH).

platelets = assay: Attachment of platelets to peptide-treated surfaces; assay type: cell-based; conditions: biotin-peptide on Avidin-coated wells
Source text: as §3, §4

fibrinogen = target: T2, fibrinogen (Homo sapiens, UniProt P02671+P02675+P02679); assay: Surface binding of biotinylated molecules to fibrinogen (streptavidin-HRP); conditions: biotinylated molecule, absorbance
T2 construct: purchased Sigma
T2 sequence (P02671 20-629 limits assumed): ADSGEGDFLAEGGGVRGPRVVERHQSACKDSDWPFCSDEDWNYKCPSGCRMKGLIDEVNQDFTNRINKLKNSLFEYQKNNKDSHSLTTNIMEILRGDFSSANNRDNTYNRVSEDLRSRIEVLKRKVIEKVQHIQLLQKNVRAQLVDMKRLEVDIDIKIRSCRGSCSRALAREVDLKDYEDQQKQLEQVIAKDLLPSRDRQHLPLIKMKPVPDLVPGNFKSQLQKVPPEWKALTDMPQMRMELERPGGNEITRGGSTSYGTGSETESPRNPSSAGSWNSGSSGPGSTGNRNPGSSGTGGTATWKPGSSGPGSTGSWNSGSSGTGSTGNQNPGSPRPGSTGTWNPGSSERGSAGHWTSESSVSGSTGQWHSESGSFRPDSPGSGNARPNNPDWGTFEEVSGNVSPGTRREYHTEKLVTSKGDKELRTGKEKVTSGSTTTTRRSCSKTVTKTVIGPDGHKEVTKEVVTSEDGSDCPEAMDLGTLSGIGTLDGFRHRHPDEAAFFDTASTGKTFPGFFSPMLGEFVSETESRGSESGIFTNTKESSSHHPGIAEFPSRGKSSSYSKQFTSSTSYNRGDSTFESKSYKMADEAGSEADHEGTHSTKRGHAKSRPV
T2 sequence (P02675 31-491): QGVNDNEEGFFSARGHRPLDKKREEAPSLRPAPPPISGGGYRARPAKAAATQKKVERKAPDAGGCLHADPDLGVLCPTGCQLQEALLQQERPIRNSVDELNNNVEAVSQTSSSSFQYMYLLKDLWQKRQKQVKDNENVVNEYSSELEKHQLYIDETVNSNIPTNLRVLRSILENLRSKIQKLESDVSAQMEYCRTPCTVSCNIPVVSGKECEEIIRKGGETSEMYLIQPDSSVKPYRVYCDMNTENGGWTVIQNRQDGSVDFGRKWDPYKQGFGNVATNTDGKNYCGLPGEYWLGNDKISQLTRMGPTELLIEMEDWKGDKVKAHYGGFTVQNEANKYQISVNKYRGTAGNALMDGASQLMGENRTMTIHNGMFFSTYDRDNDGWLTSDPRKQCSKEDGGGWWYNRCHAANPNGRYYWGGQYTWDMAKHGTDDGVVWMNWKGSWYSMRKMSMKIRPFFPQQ
T2 sequence (P02679 27-433 limits assumed): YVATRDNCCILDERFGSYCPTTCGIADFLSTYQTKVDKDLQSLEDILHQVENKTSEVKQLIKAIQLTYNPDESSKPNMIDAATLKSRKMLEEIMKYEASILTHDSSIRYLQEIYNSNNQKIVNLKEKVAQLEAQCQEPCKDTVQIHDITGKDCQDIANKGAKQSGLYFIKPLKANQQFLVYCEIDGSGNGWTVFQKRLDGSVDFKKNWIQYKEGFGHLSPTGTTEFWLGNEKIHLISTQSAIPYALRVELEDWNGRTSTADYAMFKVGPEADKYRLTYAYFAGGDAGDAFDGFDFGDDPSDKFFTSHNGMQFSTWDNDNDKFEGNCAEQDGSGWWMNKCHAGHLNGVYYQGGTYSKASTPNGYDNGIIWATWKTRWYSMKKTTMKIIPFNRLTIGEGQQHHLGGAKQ
Method: as §1
as §2, with “Using standard surface coating procedures for collagen (50 μg/mL) and matrigel (2%), ˜7.5 μg/cm^2 rat tail collagen I and ˜28 μg/cm^2 matrigel were allowed to bind to a high bind plate.” left out

HMVEC [2] = assay: HMVEC attachment to surface-bound molecules (alamarBlue); assay type: cell-based, human; conditions: low cell densities, both 1 μM and 10 μM surface treatments
Method: (§5) 50 μL, treatments dissolved in 1% BSA in PBS were added to a Biocoat Collagen I 96-well plate (Corning) and incubated for 30 minutes at 37° C. before washing 3 times with PBS to remove unbound treatment. […] To evaluate initial attachment, media was aspirated 5-8 hours after seeding and exchanged with alamarBlue® cell viability reagent (1:10, 110 μL/well, Molecular Probes) and incubated for 2.5 hours at 37° C. according to the manufacturers' protocol. 100 μL from each well was pipetted into a new plate and assayed for fluorescence at 560 nm excitation and 590 nm emission. Remaining reagent was aspirated and replaced with fresh media and the alamarBlue® viability assay was performed every 2 days thereafter for 1 week. To control for initial differences in HMVEC attachment, proliferation data is presented as the alamarBlue® fluorescence signal normalized to the signal at 8 hours.

HMVEC [3] = assay: HMVEC proliferation in response to surface-bound molecules (alamarBlue); assay type: cell-based, human
Method: as §5
Both soluble and bound forms of molecules would be present in a dynamic equilibrium in this initial experimental design and the two forms may produce differing effects, and thus we sought to investigate the effects of bound molecules alone. Furthermore, the bioactivity of a collagen-bound form would more directly reflect the application of a targeted pro-angiogenic therapy in a chronic wound. […]

[4] = system: chick chorioallantoic membrane; assay: Ex ovo CAM assay, vascular invasion into collagen gels; assay type: in vivo; conditions: both 10 μM and 20 μM embedded gels, vs blank controls
Method: For experiments studying vascular invasion into collagen gels, 30 μL collagen I gels with an embedded 3 mm×3 mm nylon mesh (Fisher) were used. 4-5 gels were placed on each CAM, with 2-3 treatment gels of the same type and 2 blank gels as internal controls to correct for embryo variability. In some embryos, the nylon meshes were dyed to improve visualization of the mesh and vessels growing into the gel. Large (4 cm×10 cm) nylon meshes were dyed by reacting in 226 mL of a 77 mM acetic acid (Sigma) solution with 10 drops of green food coloring (McCormick) or 250 μL of 3 mg/mL Evans blue (Alfa Aesar) at 121° C. for 15 minutes in an autoclave, and then cut to 3 mm×3 mm squares for embedding. Gels were imaged daily through a Dino-Eye AM7025X camera installed on a stereomicroscope; for images more than 2 days after gel implantation, 0.25 mL PBS was pipetted on top of gels to help visualize vessels. […]
In an attempt to better visualize new vasculature invading the implanted collagen gels, we injected ˜100 μL 1 mg/mL high molecular weight fluorescent dextran (70 kDa RITC-dextran) into the CAM vessels 7 days after transplantation, cut out integrated collagen gels and surrounding membrane, and imaged with fluorescence microscopy. […]

matrigel binding affinity (relative) [1]: similar
Substance: DS-(peg2V)2: dermatan sulfate with 2 peg2V peptides per DS (KLTWQELYQLKYKGI[AEEA][AEEA]GSG; also: conjugated to dermatan sulfate, 2 peg2V per DS, attachment not given here)
collagen I affinity (relative) (collagen I; comparison between molecules): higher affinity for collagen I than DS-SILY4
collagen I binding capacity (relative) (collagen I; comparison between molecules): highest collagen I binding capacity of all the molecules studied

Substance: GRGD [RGD peptide, reference compound]
monocyte binding to treated surface (THP-1 monocytes): generally supported monocyte and platelet binding
platelet binding to treated surface (platelets): generally supported monocyte and platelet binding

binding capacity to collagen I (collagen I; biotinylated molecule, absorbance): 1.6 AU
binding capacity to collagen IV/laminin ([1]; biotinylated molecule, matrigel coating, absorbance): 1.1 AU
binding capacity to fibrinogen (fibrinogen): 0.30 AU
Substance: DS-SILY4: decorin mimic composed of a dermatan sulfate backbone and 4 SILY substitutions per DS (RRANAALKAGELYKSILYGSG; also: conjugated to dermatan sulfate, 4 SILY per DS, attachment not given here)
collagen I binding after incubation (deterioration of binding activity over time) (collagen I): this shift was also observed
matrigel binding after incubation (deterioration of binding activity over time) [1]: increased matrigel binding capacity after the 2 week incubation
decrease in HMVEC attachment compared to a BSA blocked collagen surface (HMVEC [2]): 7%
endothelial proliferation vs untreated collagen (HMVEC [3]; 1 μM surface treatment): only statistically significant over no treatment when compared in media lacking VEGF
endothelial proliferation vs untreated collagen (HMVEC [3]; 10 μM surface treatment): significantly improved proliferation in media with and without VEGF
gel vascularity / vascularized gel area [4]: very slight increase in gel vascularity that was not statistically significant over the blank controls

Substance: (peg2V)2-DS-SILY4: pro-angiogenic decorin mimic, 2 peg2V and 4 SILY per DS (peptide 1 KLTWQELYQLKYKGI[AEEA][AEEA]GSG; peptide 2 RRANAALKAGELYKSILYGSG; also: conjugated to dermatan sulfate: 2 peg2V and 4 SILY per DS, attachment not given here)
collagen I binding after incubation (deterioration of binding activity over time) (collagen I): higher concentrations are needed to achieve the same binding
collagen I affinity (relative) (collagen I; comparison between molecules): highest collagen I and matrigel affinities
matrigel binding after incubation (deterioration of binding activity over time) [1]: higher concentrations are needed to achieve the same binding
matrigel binding affinity (relative) [1]: highest collagen I and matrigel affinities
